The values that follow come from paper PMC5773583, “Redundancy of protein disulfide isomerases in the catalysis of the inactivating disulfide switch in A Disintegrin and Metalloprotease 17” (Scientific Reports, 2018).

Sequences and labels used below:
B1: protein disulfide isomerase PDIA6 (enzyme, human, UniProt Q15084 20-440, looked up)
chain: LYSSSDDVIELTPSNFNREVIQSDSLWLVEFYAPWCGHCQRLTPEWKKAATALKDVVKVGAVDADKHHSLGGQYGVQGFPTIKIFGSNKNRPEDYQGGRTGEAIVDAALSALRQLVKDRLGGRSGGYSSGKQGRSDSSSKKDVIELTDDSFDKNVLDSEDVWMVEFYAPWCGHCKNLEPEWAAAASEVKEQTKGKVKLAAVDATVNQVLASRYGIRGFPTIKIFQKGESPVDYDGGRTRSDIVSRALDLFSDNAPPPELLEIINEDIAKRTCEEHQLCVVAVLPHILDTGAAGRNSYLEVLLKLADKYKKKMWGWLWTEAGAQSELETALGIGGFGYPAMAAINARKMKFALLKGSFSEQGINEFLRELSFGRGSTAPVGGGAFPTIVEREPWDGRDGELPVEDDIDLSDVELDDLGKDEL
notes: mature human PDIA6 (MW 48.8 kDa), cloned into pET28; Dimer in solution by SEC-MALS; also called Erp5; wild-type PDIA6

Bridge positions count the residues as written; N and C are the ends.

Data set [1] concerns the molecule itself. Put plainly: SEC-MALS; Superdex 200 10/300 GL, 0.5 ml/minute, PBS pH 7.4; 100–500 µg protein per analysis.
Data set [2] deals with T1, protein disulfide isomerase PDIA1 (human, UniProt P07237 18-508).
T1 construct: mature human PDIA1 (MW 57.6 kDa), cloned into pET28; Monomeric by SEC-MALS
T1 sequence (P07237 18-508): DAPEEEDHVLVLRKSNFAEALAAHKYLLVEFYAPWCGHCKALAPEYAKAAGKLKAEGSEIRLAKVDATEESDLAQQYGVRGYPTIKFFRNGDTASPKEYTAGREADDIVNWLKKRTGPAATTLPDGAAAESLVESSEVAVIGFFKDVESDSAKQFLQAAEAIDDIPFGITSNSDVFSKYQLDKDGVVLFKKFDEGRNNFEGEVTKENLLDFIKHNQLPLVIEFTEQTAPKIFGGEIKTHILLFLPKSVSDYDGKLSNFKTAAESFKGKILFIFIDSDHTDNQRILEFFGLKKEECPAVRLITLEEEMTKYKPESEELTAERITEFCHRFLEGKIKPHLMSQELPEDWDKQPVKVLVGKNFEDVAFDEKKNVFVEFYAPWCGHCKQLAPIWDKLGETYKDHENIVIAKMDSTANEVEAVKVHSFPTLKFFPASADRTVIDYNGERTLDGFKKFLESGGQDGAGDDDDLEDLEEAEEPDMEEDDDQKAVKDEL
The experiment in a line: MST; RED-NHS-labelled MPD constant at 20 nM, unlabelled PDI titrated (7.5 uM to 0.9537 nM, 1:2 series, 16 dilutions); PBS-P (PBS, 0.01% P20, pH 7.4), 25 °C; KD from the ligand-induced change of the initial fluorescence intensity. To be noted: both partners purified.

Another data set addresses T2, PDIA6 C193S TRAP mutant (human, UniProt Q15084 20-440, C193S).
T2 construct: mature human PDIA6 with C193S (second cysteine of the CGHC motif of the a' domain), in pET28
T2 sequence (looked up): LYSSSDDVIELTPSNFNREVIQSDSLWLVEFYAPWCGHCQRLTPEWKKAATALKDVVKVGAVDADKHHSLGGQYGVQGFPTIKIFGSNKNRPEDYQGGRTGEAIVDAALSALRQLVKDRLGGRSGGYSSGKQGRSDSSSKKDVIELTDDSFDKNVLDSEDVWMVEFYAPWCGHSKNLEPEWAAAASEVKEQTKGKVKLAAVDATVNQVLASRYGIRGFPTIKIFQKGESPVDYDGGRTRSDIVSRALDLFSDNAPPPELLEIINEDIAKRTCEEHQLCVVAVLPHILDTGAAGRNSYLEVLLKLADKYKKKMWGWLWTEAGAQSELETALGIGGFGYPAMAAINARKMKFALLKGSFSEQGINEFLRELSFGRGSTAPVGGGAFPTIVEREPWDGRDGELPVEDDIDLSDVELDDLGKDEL
Described as above. Conditions: both partners purified.

In data set [3] the target is B1. The description is as above. Conditions: both partners purified.
Data set [4] concerns the target T3, PDIA6 double TRAP mutant (2 TRAP) C58S C193S (human, UniProt Q15084 20-440, C58S | C193S).
T3 construct: mature human PDIA6 with C58S and C193S, in pET28; also called PDIA6 C58S C193S; PDIA6_2 TRAP
T3 sequence (looked up): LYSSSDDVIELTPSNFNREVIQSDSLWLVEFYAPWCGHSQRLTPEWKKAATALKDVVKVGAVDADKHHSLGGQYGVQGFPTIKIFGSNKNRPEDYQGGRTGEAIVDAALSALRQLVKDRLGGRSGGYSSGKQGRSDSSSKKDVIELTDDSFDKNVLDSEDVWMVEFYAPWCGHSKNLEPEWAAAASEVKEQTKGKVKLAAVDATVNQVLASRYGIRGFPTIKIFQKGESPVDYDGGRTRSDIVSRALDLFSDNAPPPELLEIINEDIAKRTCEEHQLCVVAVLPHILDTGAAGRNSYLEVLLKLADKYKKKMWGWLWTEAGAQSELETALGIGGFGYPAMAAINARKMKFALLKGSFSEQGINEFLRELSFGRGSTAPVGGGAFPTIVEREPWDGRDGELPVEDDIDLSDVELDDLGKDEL
The description is as above. Conditions: both partners purified.

The target of data set [5] is T4, PDIA6 inverse TRAP mutant C55S C190S (human, UniProt Q15084 20-440, C55S | C190S).
T4 construct: mature human PDIA6 with the N-terminal cysteines of both CGHC motifs exchanged (C55S, C190S), in pET28; also called PDIA6 C55S C190S
T4 sequence (looked up): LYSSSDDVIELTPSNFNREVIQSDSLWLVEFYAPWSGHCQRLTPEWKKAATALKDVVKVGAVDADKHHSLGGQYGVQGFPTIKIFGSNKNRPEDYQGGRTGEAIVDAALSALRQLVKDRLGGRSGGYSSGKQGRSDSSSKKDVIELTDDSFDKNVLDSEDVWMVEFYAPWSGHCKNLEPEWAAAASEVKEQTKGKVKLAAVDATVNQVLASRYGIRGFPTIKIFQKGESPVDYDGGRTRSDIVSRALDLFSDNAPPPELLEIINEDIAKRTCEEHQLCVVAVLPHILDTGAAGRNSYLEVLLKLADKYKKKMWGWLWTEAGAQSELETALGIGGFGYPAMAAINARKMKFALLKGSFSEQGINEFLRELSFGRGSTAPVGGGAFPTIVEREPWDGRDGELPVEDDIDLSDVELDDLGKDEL
The description is as above. To be noted: both partners purified.

The target in another data set is T5, PDIA6 C55S C58S mutant (human, UniProt Q15084 20-440, C55S | C58S).
T5 construct: mature human PDIA6 with both cysteines of the a domain exchanged (C55S, C58S), in pET28
T5 sequence (looked up): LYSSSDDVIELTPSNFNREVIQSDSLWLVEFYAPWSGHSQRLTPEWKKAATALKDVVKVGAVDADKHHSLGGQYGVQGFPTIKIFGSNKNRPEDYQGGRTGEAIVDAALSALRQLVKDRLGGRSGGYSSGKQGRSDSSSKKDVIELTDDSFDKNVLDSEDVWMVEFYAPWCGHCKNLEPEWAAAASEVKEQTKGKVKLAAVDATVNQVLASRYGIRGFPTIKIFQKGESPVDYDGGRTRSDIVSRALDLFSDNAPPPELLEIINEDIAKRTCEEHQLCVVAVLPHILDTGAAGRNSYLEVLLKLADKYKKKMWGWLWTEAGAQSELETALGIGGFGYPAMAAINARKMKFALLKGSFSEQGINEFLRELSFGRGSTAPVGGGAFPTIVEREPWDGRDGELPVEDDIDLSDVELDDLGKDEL
The data set is described as above. To be noted: both partners purified.

The next data set deals with T6, PDIA6 C58S TRAP mutant (human, UniProt Q15084 20-440, C58S).
T6 construct: mature human PDIA6 with C58S (second cysteine of the CGHC motif of the a domain), in pET28
T6 sequence (looked up): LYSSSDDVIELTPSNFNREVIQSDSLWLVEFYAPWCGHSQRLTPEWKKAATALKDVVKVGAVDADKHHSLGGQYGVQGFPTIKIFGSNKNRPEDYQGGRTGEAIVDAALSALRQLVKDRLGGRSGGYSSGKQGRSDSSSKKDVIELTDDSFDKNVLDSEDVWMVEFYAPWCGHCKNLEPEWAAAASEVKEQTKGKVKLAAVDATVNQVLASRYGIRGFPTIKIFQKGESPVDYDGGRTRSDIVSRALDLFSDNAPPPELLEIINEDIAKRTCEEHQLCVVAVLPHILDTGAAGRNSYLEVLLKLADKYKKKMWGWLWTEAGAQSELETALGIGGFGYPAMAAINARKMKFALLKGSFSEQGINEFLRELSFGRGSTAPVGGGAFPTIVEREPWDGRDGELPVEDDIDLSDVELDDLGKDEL
The data set is described as above. To be noted: both partners purified.

Data set [6] concerns the target T7, protein disulfide isomerase PDIA3 (human, UniProt P30101 25-505).
T7 construct: mature human PDIA3 (MW 56.6 kDa), cloned into pET28; Monomeric by SEC-MALS; also called Erp57
T7 sequence (looked up): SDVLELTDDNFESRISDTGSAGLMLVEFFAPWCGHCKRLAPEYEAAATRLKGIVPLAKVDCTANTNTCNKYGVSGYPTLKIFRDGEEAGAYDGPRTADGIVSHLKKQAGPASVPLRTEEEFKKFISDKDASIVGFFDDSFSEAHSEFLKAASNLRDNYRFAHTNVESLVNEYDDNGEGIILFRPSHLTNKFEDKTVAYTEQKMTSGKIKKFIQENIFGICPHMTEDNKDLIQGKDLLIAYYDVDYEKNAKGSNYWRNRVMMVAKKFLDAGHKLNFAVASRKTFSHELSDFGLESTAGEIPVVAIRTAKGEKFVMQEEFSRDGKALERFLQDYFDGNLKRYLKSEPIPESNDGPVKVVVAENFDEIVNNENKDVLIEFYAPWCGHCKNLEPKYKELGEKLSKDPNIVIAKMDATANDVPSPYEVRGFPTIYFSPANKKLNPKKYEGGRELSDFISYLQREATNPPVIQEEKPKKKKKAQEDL
The description is as above. To be noted: both partners purified.

Take B1: the “stoichiometry N” value in data set [1] was 2.

B2: open membrane-proximal domain (opMPD) of A Disintegrin and Metalloprotease 17 (ADAM17) (domain or fragment, UniProt P78536 581-642, looked up)
chain: FCEREQQLESCACNETDNSCKVCCRDLSGRCVPYVDAEQKNLFLRKGKPCTVGFCDMNGKCE
modifications: disulfide 20-50, 55-61; also: labelled on amines with RED-NHS dye
notes: membrane-proximal domain of ADAM17, open isomer, recombinant, 9.9 kDa; also called open conformation of the MPD
For B2, the Kd stood at 158 nM in [2]; 142 nM in the data set with PDIA6 C193S TRAP mutant; 93 nM in data set [3]; 192 nM in [4]; 115 nM in data set [5]; 138 nM with PDIA6 C55S C58S mutant. For the same molecule, the values for the Kd (with PDIA6 C58S TRAP mutant; in data set [6]) were 141 nM and 90 nM, respectively.

B3: closed membrane-proximal domain (clMPD) of A Disintegrin and Metalloprotease 17 (ADAM17) (domain or fragment, UniProt P78536 581-642, looked up)
chain: FCEREQQLESCACNETDNSCKVCCRDLSGRCVPYVDAEQKNLFLRKGKPCTVGFCDMNGKCE
modifications: disulfide 20-55, 50-61; also: labelled on amines with RED-NHS dye
notes: membrane-proximal domain of ADAM17, closed disulfide isomer; it is the disulfide isomer of m9 and probably carries the same tag; also called closed MPD; closed isoform
Consider B3, for which the Kd in [2] came to 211 nM; with PDIA6 C193S TRAP mutant it was 91 nM; in [3], 61 nM; in [4], 151 nM; in data set [5], 116 nM; with PDIA6 C55S C58S mutant it was 191 nM. Also, the Kd stood at 113 nM with PDIA6 C58S TRAP mutant and 55 nM in [6].

As usually defined, the stoichiometry N is a count of units in the complex or per binding partner. In general, Kd refers to the concentration at which binding is half-saturated. Read a high Kd as a looser complex.
